Measured values taken from paper PMC4682084 (Scientific Reports, 2015).

Assays:
[1] = biological target: fully human monoclonal agonistic anti-TRAIL-R2 antibody KMTR2 (human)
[2] = biological target: T1, ecTRAIL-R2:Fc fusion protein (human, UniProt O14763); experiment: SEC; antibody mixed with ecTRAIL-R2:Fc in PBS at a molar ratio of 1:1, 30 min 37 °C; Superdex 200 10/300 GL in D-PBS(-); conditions: both partners purified
T1 construct: TRAIL receptor 2 (TRAIL-R2, DR5), human, extracellular region, residues Ala54-Lys181; also called ecTRAIL-R2 fused with Fc; soluble TRAIL-R2 fused with the Fc region of IgG; source: CHO cells, purified (HiTrap rProtein A FF); not shown: Fc (human IgG1), C-terminal, kept

[3] = biological target: T2, endogenous TRAIL-R2 in Colo205 cells (human (endogenous in Colo205), UniProt O14763); experiment: immunostaining of cells or tissue; Colo205 cells incubated with gel filtration fractionated monomeric antibody, 100 ng/mL, 1.5 h 37 °C; Alexa 488-labeled anti-human IgG Fab; confocal microscopy; conditions: one partner purified
T2 construct: TRAIL receptor 2 (TRAIL-R2, DR5), endogenous on the human colorectal adenocarcinoma cell line Colo205; also called DR5; membrane TRAIL-R2; source: endogenous, on Colo205 cells

[4] = biological target: T3, extracellular region of TRAIL-R2 (ecTRAIL-R2) (human, UniProt O14763); experiment: SEC-MALS; ecTRAIL-R2 mixed with excess KMTR2-Fab, RT 1 h; Superdex 200 HR 10/30, 20 mM HEPES pH 7.2, 0.2 M NaCl; multi-angle light scattering (mini-DAWN); conditions: both partners purified
T3 construct: TRAIL receptor 2 (TRAIL-R2, DR5), human, extracellular region, residues Ala54-Lys181; also called DR5; source: CHO cells as ecTRAIL-R2:Fc fusion, purified (rProtein A), digested with enterokinase, cation-exchange chromatography; not shown: Fc (human IgG1), C-terminal, cleaved

Q: With “fully human monoclonal agonistic anti-TRAIL-R2 antibody KMTR2” as the molecule, how does the inhibition of the proliferation of Colo205 cells (MTS), 1-100 ng/mL, without cross-linking reagent [1] read?
A: The inhibition of the proliferation of Colo205 cells (MTS), 1-100 ng/mL, without cross-linking reagent was 6 to 7 ng/mL.

B1: KMTR2 LkN53R mutant (Asn53 to Arg in the light kappa chain) (antibody, V domains shown)
VH: QVQLVQSGAEMKKPGASVKVSCKTSGYTFTNYKINWVRQAPGQGLEWMGWMNPDTDSTGYPQKFQGRVTMTRNTSISTAYMELSSLRSEDTAVYYCARSYGSGSYYRDYYYGMDVWGQGTTVTVSS
VL: EIVLTQSPATLSLSPGERATLSCRASQSVSSYLAWYQQKPGQAPRLLIYDASRRATGIPARFSGSGSGTDFTLTISSLEPEDFAVYYCQQRSNWPLTFGGGTKVEIK
notes: as the heavy chain of m5; Fab part (Gln1-Ser226) in PDB 3X3F and 3X3G; as the light kappa chain of m5 (Glu1-Cys214 in PDB 3X3F and 3X3G) with Asn53 changed to Arg; Whole IgG made from the N5KG4-KMTR2 vector by site-directed mutagenesis; copies: 2 + 2
Q: Does B1 bind [2]?
A: Result: binds

Q: Does B1 bind [3]?
A: Result: binds

B2: Fab fragment derived from KMTR2 (KMTR2-Fab) (Fab, V domains shown)
VH: QVQLVQSGAEMKKPGASVKVSCKTSGYTFTNYKINWVRQAPGQGLEWMGWMNPDTDSTGYPQKFQGRVTMTRNTSISTAYMELSSLRSEDTAVYYCARSYGSGSYYRDYYYGMDVWGQGTTVTVSS
VL: EIVLTQSPATLSLSPGERATLSCRASQSVSSYLAWYQQKPGQAPRLLIYDASNRATGIPARFSGSGSGTDFTLTISSLEPEDFAVYYCQQRSNWPLTFGGGTKVEIK
notes: heavy chain of KMTR2-Fab; light kappa chain of KMTR2; Fully human monoclonal antibody from KM mice; source: papain digestion of recombinant KMTR2, purified by cation-exchange chromatography
Q: B2 was tested. Which “stoichiometry N” value [4] did it give?
A: Its value is 1.
